Test results reported in paper PMC6888645.
Blank lines part the entries; values can stand above or below the substance they belong to.

Legend:
[1] = biological target: DD-N-CAP1, human CAP1 helical folded domain with the coiled coil (a.a. 1-29) replaced by the dimerization domain 2L4HC2_23 (human); experiment: native MS; 100-300 pmole protein (as monomer), online buffer exchange to 200 mM ammonium acetate pH 6.8, Orbitrap EMR, deconvolution with UniDec
[2] = biological target: DD-N-CAP1, human CAP1 helical folded domain with the coiled coil (a.a. 1-29) replaced by the dimerization domain 2L4HC2_23 (human); experiment: AUC; sedimentation velocity (SV-AUC), 50 µM protein, 20 °C, 50,000 rpm, absorbance at 280 nm, 20 mM Tris-HCl pH 8.0, SEDFIT c(S) model; buffer (Tris-HCl vs PBS) and salt did not affect the oligomerization state
[3] = biological target: TD-N-CAP2, human CAP2 helical folded domain with the coiled coil (a.a. 1-29) replaced by the trimerization domain 2L6HC3_6 (human); experiment: native MS; 100-300 pmole protein (as monomer), online buffer exchange to 200 mM ammonium acetate pH 6.8, Orbitrap EMR, deconvolution with UniDec
[4] = biological target: TD-N-CAP2, human CAP2 helical folded domain with the coiled coil (a.a. 1-29) replaced by the trimerization domain 2L6HC3_6 (human); experiment: AUC; sedimentation velocity (SV-AUC), 50 µM protein, 20 °C, 50,000 rpm, absorbance at 280 nm, 20 mM Tris-HCl pH 8.0, SEDFIT c(S) model; buffer (Tris-HCl vs PBS) and salt did not affect the oligomerization state
[5] = biological target: TD-N-CAP1, human CAP1 helical folded domain with the coiled coil (a.a. 1-29) replaced by the trimerization domain 2L6HC3_6 (human); experiment: native MS; 100-300 pmole protein (as monomer), online buffer exchange to 200 mM ammonium acetate pH 6.8, Orbitrap EMR, deconvolution with UniDec
[6] = biological target: TD-N-CAP1, human CAP1 helical folded domain with the coiled coil (a.a. 1-29) replaced by the trimerization domain 2L6HC3_6 (human); experiment: AUC; sedimentation velocity (SV-AUC), 50 µM protein, 20 °C, 50,000 rpm, absorbance at 280 nm, 20 mM Tris-HCl pH 8.0, SEDFIT c(S) model; buffer (Tris-HCl vs PBS) and salt did not affect the oligomerization state
[7] = biological target: DD-N-CAP2, human CAP2 helical folded domain with the coiled coil (a.a. 1-29) replaced by the dimerization domain 2L4HC2_23 (human); experiment: native MS; 100-300 pmole protein (as monomer), online buffer exchange to 200 mM ammonium acetate pH 6.8, Orbitrap EMR, deconvolution with UniDec
[8] = biological target: DD-N-CAP2, human CAP2 helical folded domain with the coiled coil (a.a. 1-29) replaced by the dimerization domain 2L4HC2_23 (human); experiment: AUC; sedimentation velocity (SV-AUC), 50 µM protein, 20 °C, 50,000 rpm, absorbance at 280 nm, 20 mM Tris-HCl pH 8.0, SEDFIT c(S) model; buffer (Tris-HCl vs PBS) and salt did not affect the oligomerization state

stoichiometry N [1]: 2
stoichiometry N [2]: 2
Substance: DD-N-CAP1, human CAP1 helical folded domain with the coiled coil (a.a. 1-29) replaced by the dimerization domain 2L4HC2_23

stoichiometry N [3]: 3
stoichiometry N [4]: 3
Substance: TD-N-CAP2, human CAP2 helical folded domain with the coiled coil (a.a. 1-29) replaced by the trimerization domain 2L6HC3_6

stoichiometry N [5]: 3
stoichiometry N [6]: 3
Substance: TD-N-CAP1, human CAP1 helical folded domain with the coiled coil (a.a. 1-29) replaced by the trimerization domain 2L6HC3_6

stoichiometry N [7]: 2
stoichiometry N [8]: 2
Substance: DD-N-CAP2, human CAP2 helical folded domain with the coiled coil (a.a. 1-29) replaced by the dimerization domain 2L4HC2_23
